Legend:
[1] = biological target: WD Repeat Containing Protein 5 (WDR5) (UniProt P61964); experiment: thermal shift
[2] = biological target: WD Repeat Containing Protein 5 (WDR5) (UniProt P61964); experiment: fluorescent polarization (FP) assay
[3] = biological target: WD Repeat Containing Protein 5 (WDR5) (UniProt P61964); experiment: ITC

Peptide Substrate (WIN peptide, pentapeptide fragment of the WDR5 binding partner MLL1 protein)
ΔTm*(Thermal shift) [1]: 2 ° C.
Kd [2]: 1300 nM
Kd [3]: 1300 nM
